This experiment has as its target GST-Rho-G17A (UniProt P61586 1-193, G17A). The experiment is described as follows: pull-down.

Sequence of GST-Rho-G17A (P61586 whole entry G17A): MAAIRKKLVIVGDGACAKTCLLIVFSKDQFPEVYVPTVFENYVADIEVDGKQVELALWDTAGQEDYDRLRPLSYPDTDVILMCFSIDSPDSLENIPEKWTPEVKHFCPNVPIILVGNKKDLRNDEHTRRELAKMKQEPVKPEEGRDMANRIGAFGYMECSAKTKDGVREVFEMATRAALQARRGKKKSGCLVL

B1: mCh-LARG-W769A (natural protein, UniProt Q9NZN5 1-1544, looked up)
chain: MSGTQSTITDRFPLKKPIRHGSILNRESPTDKKQKVERIASHDFDPTDSSSKKTKSSSEESRSEIYGLVQRCVIIQKDDNGFGLTVSGDNPVFVQSVKEDGAAMRAGVQTGDRIIKVNGTLVTHSNHLEVVKLIKSGSYVALTVQGRPPGSPQIPLADSEVEPSVIGHMSPIMTSPHSPGASGNMERITSPVLMGEENNVVHNQKVEILRKMLQKEQERLQLLQEDYNRTPAQRLLKEIQEAKKHIPQLQEQLSKATGSAQDGAVVTPSRPLGDTLTVSEAETDPGDVLGRTDCSSGDASRPSSDNADSPKSGPKERIYLEENPEKSETIQDTDTQSLVGSPSTRIAPHIIGAEDDDFGTEHEQINGQCSCFQSIELLKSRPAHLAVFLHHVVSQFDPATLLCYLYSDLYKHTNSKETRRIFLEFHQFFLDRSAHLKVSVPDEMSADLEKRRPELIPEDLHRHYIQTMQERVHPEVQRHLEDFRQKRSMGLTLAESELTKLDAERDKDRLTLEKERTCAEQIVAKIEEVLMTAQAVEEDKSSTMQYVILMYMKHLGVKVKEPRNLEHKRGRIGFLPKIKQSMKKDKEGEEKGKRRGFPSILGPPRRPSRHDNSAIGRAMELQKARHPKHLSTPSSVSPEPQDSAKLRQSGLANEGTDAGYLPANSMSSVASGASFSQEGGKENDTGSKQVGETSAPGDTLDGTPRTLNTVFDFPPPPLDQVQEEECEVERVTEHGTPKPFRKFDSVAFGESQSEDEQFENDLETDPPNAQQLVSREVLLGLKPCEIKRQEVINELFYTERAHVRTLKVLDQVFYQRVSREGILSPSELRKIFSNLEDILQLHIGLNEQMKAVRKRNETSVIDQIGEDLLTWFSGPGEEKLKHAAATFCSNQPFALEMIKSRQKKDSRFQTFVQDAESNPLCRRLQLKDIIPTQMQRLTKYPLLLDNIAKYTEWPTEREKVKKAADHCRQILNYVNQAVKEAENKQRLEDYQRRLDTSSLKLSEYPNVEELRNLDLTKRKMIHEGPLVWKVNRDKTIDLYTLLLEDILVLLQKQDDRLVLRCHSKILASTADSKHTFSPVIKLSTVLVRQVATDNKALFVISMSDNGAQIYELVAQTVSEKTVWQDLICRMAASVKEQSTKPIPLPQSTPGEGDNDEEDPSKLKEEQHGISVTGLQSPDRDLGLESTLISSKPQSHSLSTSGKSEVRDLFVAERQFAKEQHTDGTLKEVGEDYQIAIPDSHLPVSEERWALDALRNLGLLKQLLVQQLGLTEKSVQEDWQHFPRYRTASQGPQTDSVIQNSENIKAYHSGEGHMPFRTGTGDIATCYSPRTSTESFAPRDSVGLAPQDSQASNILVMDHMIMTPEMPTMEPEGGLDDSGEHFFDAREAHSDENPSEGDGAVNKEEKDVNLRISGNYLILDGYDPVQESSTDEEVASSLTLQPMTGIPAVESTHQQQHSPQNTHSDGAISPFTPEFLVQQRWGAMEYSCFEIQSPSSCADSQSQIMEYIHKIEADLEHLKKVEESYTILCQRLAGSALTDKHSDKS
Turning to B1, the “fold decrease in pull down against wild-type LARG” value came to 5 fold.

These data come from PMC3771942 (Molecular Biology of the Cell, 2013).
